# Patent publication US20110150875A1
# Tests used:
# [1] = target: PCSK9-FLAG (Pan troglodytes (Chimpanzee); Homo sapiens (Human)) (UniProt A8T644); assay: AlphaScreen competition, matrilin-2 at 11 nM; inhibition of PCSK9-Flag binding to His-tagged LDL receptor (competitor LDLR), relative to maximum signal without matrilin-2
# [2] = target: PCSK9-FLAG (Pan troglodytes (Chimpanzee); Homo sapiens (Human)) (UniProt A8T644); assay: AlphaScreen competition, matrilin-2 at 3.8 nM; inhibition of PCSK9-Flag binding to His-tagged LDL receptor (competitor LDLR), relative to maximum signal without matrilin-2
# [3] = target: PCSK9-FLAG (Pan troglodytes (Chimpanzee); Homo sapiens (Human)) (UniProt A8T644); assay: AlphaScreen competition, matrilin-2 at 0.42 nM; inhibition of PCSK9-Flag binding to His-tagged LDL receptor (competitor LDLR), relative to maximum signal without matrilin-2
# [4] = target: PCSK9-FLAG (Pan troglodytes (Chimpanzee); Homo sapiens (Human)) (UniProt A8T644); assay: AlphaScreen, His-tagged matrilin-2 at log [Matrilin] uM -2.340283 with PCSK9-FLAG; triplicate, SD 469
# [5] = target: PCSK9-FLAG (Pan troglodytes (Chimpanzee); Homo sapiens (Human)) (UniProt A8T644); assay: AlphaScreen, His-tagged matrilin-2 at log [Matrilin] uM -1.386041 with PCSK9-FLAG; triplicate, SD 1634
# [6] = target: PCSK9-FLAG (Pan troglodytes (Chimpanzee); Homo sapiens (Human)) (UniProt A8T644); assay: AlphaScreen, His-tagged matrilin-2 at log [Matrilin] uM -2.817405 with PCSK9-FLAG; triplicate, SD 412
# [7] = target: PCSK9-FLAG (Pan troglodytes (Chimpanzee); Homo sapiens (Human)) (UniProt A8T644); assay: AlphaScreen competition, matrilin-2 at 0.14 nM; inhibition of PCSK9-Flag binding to His-tagged LDL receptor (competitor LDLR), relative to maximum signal without matrilin-2
# [8] = target: PCSK9-FLAG (Pan troglodytes (Chimpanzee); Homo sapiens (Human)) (UniProt A8T644); assay: AlphaScreen, His-tagged matrilin-2 at log [Matrilin] uM -0.9089195 with PCSK9-FLAG; triplicate, SD 3028
# [9] = target: PCSK9-FLAG (Pan troglodytes (Chimpanzee); Homo sapiens (Human)) (UniProt A8T644); assay: AlphaScreen competition, matrilin-2 at 1.3 nM; inhibition of PCSK9-Flag binding to His-tagged LDL receptor (competitor LDLR), relative to maximum signal without matrilin-2
# [10] = target: PCSK9-FLAG (Pan troglodytes (Chimpanzee); Homo sapiens (Human)) (UniProt A8T644); assay: AlphaScreen competition, matrilin-2 at 34 nM; inhibition of PCSK9-Flag binding to His-tagged LDL receptor (competitor LDLR), relative to maximum signal without matrilin-2
# [11] = target: PCSK9-FLAG (Pan troglodytes (Chimpanzee); Homo sapiens (Human)) (UniProt A8T644); assay: AlphaScreen, His-tagged matrilin-2 at log [Matrilin] uM -3.771647 with PCSK9-FLAG; triplicate, SD 220
# [12] = target: PCSK9-FLAG (Pan troglodytes (Chimpanzee); Homo sapiens (Human)) (UniProt A8T644); assay: AlphaScreen, His-tagged matrilin-2 at log [Matrilin] uM -1.863162 with PCSK9-FLAG; triplicate, SD 1131
# [13] = target: PCSK9-FLAG (Pan troglodytes (Chimpanzee); Homo sapiens (Human)) (UniProt A8T644); assay: AlphaScreen, His-tagged matrilin-2 at log [Matrilin] uM -3.294526 with PCSK9-FLAG; triplicate, SD 495
# [14] = target: PCSK9-FLAG (Pan troglodytes (Chimpanzee); Homo sapiens (Human)) (UniProt A8T644); assay: AlphaScreen, His-tagged matrilin-2 at log [Matrilin] uM -0.4317983 with PCSK9-FLAG; triplicate, SD 2548
# Sequence of UniProt A8T644 (A8T644 31-152 limits assumed, chain 1 of 2): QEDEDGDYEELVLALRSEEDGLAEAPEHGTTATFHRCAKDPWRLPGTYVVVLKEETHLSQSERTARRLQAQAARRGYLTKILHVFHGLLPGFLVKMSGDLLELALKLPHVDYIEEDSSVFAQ
# Sequence of UniProt A8T644 (A8T644 other isoform, or with tags, fused parts or gaps limits assumed, chain 2 of 2): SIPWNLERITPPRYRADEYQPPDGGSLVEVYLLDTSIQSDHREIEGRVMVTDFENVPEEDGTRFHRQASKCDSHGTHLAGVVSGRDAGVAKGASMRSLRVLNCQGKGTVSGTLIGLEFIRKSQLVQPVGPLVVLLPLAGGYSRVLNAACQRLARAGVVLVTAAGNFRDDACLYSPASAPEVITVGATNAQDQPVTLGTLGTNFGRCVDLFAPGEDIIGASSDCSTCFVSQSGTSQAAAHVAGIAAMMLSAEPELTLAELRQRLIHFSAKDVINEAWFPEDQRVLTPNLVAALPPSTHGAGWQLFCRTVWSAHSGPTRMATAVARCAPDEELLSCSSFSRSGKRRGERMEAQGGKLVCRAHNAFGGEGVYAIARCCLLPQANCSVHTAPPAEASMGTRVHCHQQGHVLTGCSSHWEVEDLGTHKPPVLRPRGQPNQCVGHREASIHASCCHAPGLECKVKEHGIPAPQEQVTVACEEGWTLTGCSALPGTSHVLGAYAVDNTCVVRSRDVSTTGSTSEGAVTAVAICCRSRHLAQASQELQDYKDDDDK
binder,measurement,setting,value
"His-tagged recombinant human matrilin-2 (mature, short isoform, Arg 24-Arg 937; R&D Systems Catalog Number 3044-MN) (protein, not shown: small tags and cut ends) RERSRGRSISRGRHARTHPQTALLESSCENKRADLVFIIDSSRSVNTHDYAKVKEFIVDILQFLDIGPDVTRVGLLQYGSTVKNEFSLKTFKRKSEVERAVKRMRHLSTGTMTGLAIQYALNIAFSEAEGARPLRENVPRVIMIVTDGRPQDSVAEVAAKARDTGILIFAIGVGQVDFNTLKSIGSEPHEDHVFLVANFSQIETLTSVFQKKLCTAHMCSTLEHNCAHFCINIPGSYVCRCKQGYILNSDQTTCRIQDLCAMEDHNCEQLCVNVPGSFVCQCYSGYALAEDGKRCVAVDYCASENHGCEHECVNADGSYLCQCHEGFALNPDKKTCTKIDYCASSNHGCQHECVNTDDSYSCHCLKGFTLNPDKKTCRRINYCALNKPGCEHECVNMEESYYCRCHRGYTLDPNGKTCSRVDHCAQQDHGCEQLCLNTEDSFVCQCSEGFLINEDLKTCSRVDYCLLSDHGCEYSCVNMDRSFACQCPEGHVLRSDGKTCAKLDSCALGDHGCEHSCVSSEDSFVCQCFEGYILREDGKTCRRKDVCQAIDHGCEHICVNSDDSYTCECLEGFRLAEDGKRCRRKDVCKSTHHGCEHICVNNGNSYICKCSEGFVLAEDGRRCKKCTEGPIDLVFVIDGSKSLGEENFEVVKQFVTGIIDSLTISPKAARVGLLQYSTQVHTEFTLRNFNSAKDMKKAVAHMKYMGKGSMTGLALKHMFERSFTQGEGARPLSTRVPRAAIVFTDGRAQDDVSEWASKAKANGITMYAVGVGKAIEEELQEIASEPTNKHLFYAEDFSTMDEISEKLKKGICEALEDSDGRQDSPAGELPKTVQQPTVQHRYLFEEDNLLRSTQKLSHSTKPSGSPLEEKHDQCKCENLIMFQNLANEEVRKLTQRLEEMTQRMEALENRLRYR",% inhibition,[1],36%
same,% inhibition,[2],17.1%
same,% inhibition,[3],-0.4%
same,Alphascreen Signal (counts per second),[4],10100
same,Alphascreen Signal (counts per second),[5],54000
same,Alphascreen Signal (counts per second),[6],12900
same,% inhibition,[7],0.1%
same,Alphascreen Signal (counts per second),[8],222000
same,% inhibition,[9],5.2%
same,% inhibition,[10],50.7%
same,Alphascreen Signal (counts per second),[11],20200
same,Alphascreen Signal (counts per second),[12],14100
same,Alphascreen Signal (counts per second),[13],18800
same,Alphascreen Signal (counts per second),[14],213000
